In article PMC9797058 one finds Kd data, which are given here for three substances.

The target of experiment [1] is N-terminally His-tagged Pasteurella multocida toxin (PMT) (Pasteurella multocida) (UniProt P17452). The experiment can be described thus: ELISA; solid-phase binding assay; His-PMT coated at 10 ug/mL (500 ng/well) on 96-well Maxisorb plates at 4 C overnight; LRP1 cluster 2, 3 or 4 at 0.02-500 nM, RT, 2 h; TBS with 2 mM CaCl2; bound ligand detected with goat anti-human IgG-HRP.

The next experiment has as its target LRP1 (Homo sapiens) (UniProt Q07954). As to conditions: cited from earlier work.

Sequence of UniProt P17452 (P17452 whole entry): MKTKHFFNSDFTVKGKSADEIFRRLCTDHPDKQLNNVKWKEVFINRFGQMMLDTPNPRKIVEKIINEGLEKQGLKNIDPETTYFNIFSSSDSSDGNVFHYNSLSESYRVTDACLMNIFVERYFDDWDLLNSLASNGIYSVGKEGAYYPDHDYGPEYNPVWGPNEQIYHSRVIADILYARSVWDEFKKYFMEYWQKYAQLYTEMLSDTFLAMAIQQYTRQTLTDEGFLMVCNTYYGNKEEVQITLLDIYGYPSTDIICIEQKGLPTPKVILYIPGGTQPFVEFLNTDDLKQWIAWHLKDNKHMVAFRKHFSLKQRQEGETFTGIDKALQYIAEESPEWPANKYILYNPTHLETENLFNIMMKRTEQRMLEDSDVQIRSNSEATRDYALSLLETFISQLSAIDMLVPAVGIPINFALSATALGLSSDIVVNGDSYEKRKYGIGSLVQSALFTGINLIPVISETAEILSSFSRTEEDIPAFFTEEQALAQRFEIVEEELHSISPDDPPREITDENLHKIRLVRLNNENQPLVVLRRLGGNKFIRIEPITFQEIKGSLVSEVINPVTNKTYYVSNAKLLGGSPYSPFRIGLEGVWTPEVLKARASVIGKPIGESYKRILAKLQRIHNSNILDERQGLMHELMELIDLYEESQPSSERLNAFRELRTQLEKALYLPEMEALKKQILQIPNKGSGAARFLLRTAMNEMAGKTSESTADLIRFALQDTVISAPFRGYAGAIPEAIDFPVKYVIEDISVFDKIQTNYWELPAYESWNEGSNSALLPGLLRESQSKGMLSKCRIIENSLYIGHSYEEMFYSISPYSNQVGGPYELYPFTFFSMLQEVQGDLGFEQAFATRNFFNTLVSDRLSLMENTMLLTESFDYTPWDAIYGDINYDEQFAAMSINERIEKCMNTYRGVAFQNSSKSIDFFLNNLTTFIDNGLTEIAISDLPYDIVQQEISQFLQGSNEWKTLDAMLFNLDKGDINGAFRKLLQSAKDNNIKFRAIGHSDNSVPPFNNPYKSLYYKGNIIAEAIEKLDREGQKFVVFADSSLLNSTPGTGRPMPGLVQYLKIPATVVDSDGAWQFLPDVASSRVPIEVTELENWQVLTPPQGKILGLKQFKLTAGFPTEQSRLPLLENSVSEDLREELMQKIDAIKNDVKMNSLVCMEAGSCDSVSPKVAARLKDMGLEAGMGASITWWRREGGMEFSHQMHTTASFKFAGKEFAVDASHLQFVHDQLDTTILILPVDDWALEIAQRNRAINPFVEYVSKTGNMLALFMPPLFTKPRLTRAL

Substance “LRP1 cluster 2 (commercially available extracellular domain) (from UniProt Q07954 20-4544) (domain or fragment)” displayed a Kd in experiment [1] of 41.6 nM.

As for “LRP1 cluster 4 (commercially available extracellular domain) (from UniProt Q07954 20-4544) (domain or fragment)”, in experiment [1], the Kd was determined as 2.28 nM.

Consider “Pseudomonas exotoxin A (from UniProt P11439)”, for which, in the experiment with LRP1 (Homo sapiens), the equilibrium dissociation constant (Kd) was 5.2 nM.
